Legend:
[1] = tested on: CBC–NELF–E complex immobilised on m^7GTP-sepharose; assay: Displacement pull down on m^7GTP-sepharose, CBC–NELF–E; format: binding, human; conditions: increasing amounts added, 1 h at 4 °C, flow through and elution by SDS-PAGE
Experimental: Fig. 4 Incompatibility of ARS2-PHAX and NELF-E binding to CBC. a, b Competition on m^7GTP-sepharose. a In separate experiments, different amounts of ARS2^147–871 were added to preformed CBC–NELF–E complex immobilised on m^7GTP-sepharose. […] The fluorophore FAM is represented with a star. Note that different constructs of NELF-E and ARS2 were used in c, d, and e compared to f, g, and h and are therefore represented by slightly different shapes. Error bars show the SD of three experiments
CBC-NELF-E^1–380 or CBC-PHAX^1–394 were immobilised on m^7GTP-sepharose and incubated for 1 h at 4 °C with different amounts of ARS2^147–871 or NELF-E^1–380 in 20 mM HEPES, pH 7.8, 120 mM NaCl, 2 mM tris(2-carboxyethyl)phosphine, respectively. The flow through, as well as the elution from the beads after extensive washing, was analysed by SDS-PAGE followed by Coomassie staining.

CBC [2] = biological target: T1, CBC (Homo sapiens, UniProt P52298); assay: Size exclusion chromatography (gel filtration) co-elution with CBC, with m^7GTP; format: binding; conditions: gel filtration with 500 µM m^7GTP, fractions analysed by SDS-PAGE
T1 sequence (P52298 1-156): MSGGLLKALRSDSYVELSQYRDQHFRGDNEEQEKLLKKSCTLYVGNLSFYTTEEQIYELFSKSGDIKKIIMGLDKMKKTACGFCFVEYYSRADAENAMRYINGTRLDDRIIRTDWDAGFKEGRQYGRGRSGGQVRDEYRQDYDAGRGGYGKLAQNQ
T1 sequence (Q09161 20-790 partner): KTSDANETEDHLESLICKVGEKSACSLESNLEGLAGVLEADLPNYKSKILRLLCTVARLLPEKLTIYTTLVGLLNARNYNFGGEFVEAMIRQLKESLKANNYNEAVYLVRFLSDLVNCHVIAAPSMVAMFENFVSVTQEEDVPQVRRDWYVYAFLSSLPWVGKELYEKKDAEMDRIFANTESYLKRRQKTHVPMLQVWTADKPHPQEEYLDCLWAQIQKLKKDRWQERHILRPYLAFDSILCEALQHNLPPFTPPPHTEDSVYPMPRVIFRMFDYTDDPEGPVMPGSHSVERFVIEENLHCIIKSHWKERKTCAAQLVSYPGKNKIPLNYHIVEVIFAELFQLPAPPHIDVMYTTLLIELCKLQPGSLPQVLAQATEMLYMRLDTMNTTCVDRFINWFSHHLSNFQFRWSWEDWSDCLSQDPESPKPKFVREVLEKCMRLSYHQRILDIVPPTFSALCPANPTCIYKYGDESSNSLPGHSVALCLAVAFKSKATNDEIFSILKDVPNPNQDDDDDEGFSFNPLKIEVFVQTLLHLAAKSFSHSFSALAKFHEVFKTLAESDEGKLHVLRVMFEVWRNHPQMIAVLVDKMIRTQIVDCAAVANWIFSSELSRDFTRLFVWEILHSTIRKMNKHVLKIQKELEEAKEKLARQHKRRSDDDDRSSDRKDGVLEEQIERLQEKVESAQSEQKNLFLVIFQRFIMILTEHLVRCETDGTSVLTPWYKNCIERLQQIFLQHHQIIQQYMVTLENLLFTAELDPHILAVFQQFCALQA
Experimental: (§1) Fig. 1 The interaction of CBC with ARS2 is enhanced in the presence of m^7GTP. a Schematic diagram of the domain structure of ARS2 based on ref. [26]. b Gel filtration chromatogram and Coomassie-stained SDS-PAGE of CBC-ARS2 in the presence and absence of m^7GTP. Purified recombinant CBC and ARS2^147–871 were mixed with (orange) or without (blue) 500 µM m^7GTP and subjected to gel filtration. Their elution profiles were overlaid (left) and single fractions analysed by SDS-PAGE (middle and right). Purified recombinant CBC and C-terminally truncated ARS2^147–845 were mixed with 500 µM m^7GTP and analysed in a similar way (bottom left). c ITC data and curve fit to derive the affinity of different ARS2 constructs for CBC. CBC or m^7GTP-CBC in the sample cell was titrated by ARS2. […] K D values and standard deviation represent the average from at least two independent experiments. d Sequence alignment of the C-terminus of ARS2. Conserved residues are highlighted in red. Figure made with ESPript[54]
Fig. 2 The interaction of CBC with NELF-E is enhanced in the presence of m^7GTP. a Schematic diagram of the domain structure of NELF-E. b Gel filtration chromatogram and Coomassie-stained SDS-PAGE of CBC-NELF-E in the presence and absence of m^7GTP. Purified recombinant CBC and NELF-E were mixed with (orange) or without (green) 500 µM m^7GTP and subjected to gel filtration. Their elution profiles were overlaid (left) and single fractions analysed by SDS-PAGE (middle and right). Purified recombinant CBC and NELF-E^244–360 were mixed together with 500 µM m^7GTP and similarly analysed (bottom left). c ITC data and curve fit to derive the affinity of different NELF-E constructs for CBC. CBC or m^7GTP-CBC in the sample cell was titrated by NELF-E^244–380 or NELF-E^360–380. The data were presented as described in the caption to Fig. 1c. d Sequence alignment of the C-terminus of NELF-E. Conserved residues are highlighted in red. Figure made with ESPript[54]

CBC [3] = biological target: T1, CBC; assay: Size exclusion chromatography (gel filtration) co-elution with CBC, without m^7GTP; format: binding; conditions: fractions analysed by SDS-PAGE, absence of m^7GTP
Experimental: as §1
Fig. 2 The interaction of CBC with NELF-E is enhanced in the presence of m^7GTP. a Schematic diagram of the domain structure of NELF-E. b Gel filtration chromatogram and Coomassie-stained SDS-PAGE of CBC-NELF-E in the presence and absence of m^7GTP. […] Their elution profiles were overlaid (left) and single fractions analysed by SDS-PAGE (middle and right). […]

B1: ARS2^147–871: human ARS2 lacking the putatively unstructured N-terminal region (protein, UniProt Q9BXP5 147-871, looked up, fragment)
chain: PVMKTFKEFLLSLDDSVDETEAVKRYNDYKLDFRRQQMQDFFLAHKDEEWFRSKYHPDEVGKRRQEARGALQNRLRVFLSLMETGWFDNLLLDIDKADAIVKMLDAAVIKMEGGTENDLRILEQEEEEEQAGKPGEPSKKEEGRAGAGLGDGERKTNDKDEKKEDGKQAENDSSNDDKTKKSEGDGDKEEKKEDSEKEAKKSSKKRNRKHSGDDSFDEGSVSESESESESGQAEEEKEEAEEALKEKEKPKEEEWEKPKDAAGLECKPRPLHKTCSLFMRNIAPNISRAEIISLCKRYPGFMRVALSEPQPERRFFRRGWVTFDRSVNIKEICWNLQNIRLRECELSPGVNRDLTRRVRNINGITQHKQIVRNDIKLAAKLIHTLDDRTQLWASEPGTPPLPTSLPSQNPILKNITDYLIEEVSAEEEELLGSSGGAPPEEPPKEGNPAEINVERDEKLIKVLDKLLLYLRIVHSLDYYNTCEYPNEDEMPNRCGIIHVRGPMPPNRISHGEVLEWQKTFEEKLTPLLSVRESLSEEEAQKMGRKDPEQEVEKFVTSNTQELGKDKWLCPLSGKKFKGPEFVRKHIFNKHAEKIEEVKKEVAFFNNFLTDAKRPALPEIKPAQPPGPAQILPPGLTPGLPYPHQTPQGLMPYGQPRPPILGYGAGAVRPAVPTGGPPYPHAPYGAGRGNYDAFRGQGGYPGKPRNRMVRGDPRAIVEYRDLDAPD
Displacement of NELF-E from immobilised m^7GTP–CBC–NELF–E complex [1]: could displace NELF-E | Interaction with CBC by SEC in the presence of m^7GTP (CBC [2]): only co-eluted in the presence of the cap analogue m^7GTP

B2: PHAX 103–264: human PHAX residues 103–264 (protein, UniProt Q9H814 103-264, looked up, fragment)
chain: SQKPPVAGGKKINNIWGAVLQEQNQDAVATELGILGMEGTIDRSRQSETYNYLLAKKLRKESQEHTKDLDKELDEYMHGGKKMGSKEEENGQGHLKRKRPVKDRLGNRPEMNYKGRYEITAEDSQEKVADEISFRLQEPKKDLIARVVRIIGNKKAIELLME
Interaction with CBC by SEC (CBC [3]): No interaction via SEC

Source: paper PMC5670239, “Structural basis for mutually exclusive co-transcriptional nuclear cap-binding complexes with either NELF-E or ARS2” (Nature Communications, 2017)
